Reference: paper PMC3760765, “A Meiosis-Specific Form of the APC/C Promotes the Oocyte-to-Embryo Transition by Decreasing Levels of the Polo Kinase Inhibitor Matrimony” (PLoS Biology, 2013)
Each block holds one binder with its values, some of them ahead of it.

What was measured:
GST-CycA (Cyclin A) = target: T1, GST-CycA (Cyclin A) (UniProt P14785 1-491); test: pull-down; purified GST-tagged protein on beads incubated with 5 µl in vitro translation reaction (reticulocyte lysate) in 500 µl IP buffer, 2 h at 4°C; 3 washes; Western blot with anti-Myc 9E10; details: one partner purified
T1 construct: Cyclin A; construct not described in the methods
T1 sequence (looked up): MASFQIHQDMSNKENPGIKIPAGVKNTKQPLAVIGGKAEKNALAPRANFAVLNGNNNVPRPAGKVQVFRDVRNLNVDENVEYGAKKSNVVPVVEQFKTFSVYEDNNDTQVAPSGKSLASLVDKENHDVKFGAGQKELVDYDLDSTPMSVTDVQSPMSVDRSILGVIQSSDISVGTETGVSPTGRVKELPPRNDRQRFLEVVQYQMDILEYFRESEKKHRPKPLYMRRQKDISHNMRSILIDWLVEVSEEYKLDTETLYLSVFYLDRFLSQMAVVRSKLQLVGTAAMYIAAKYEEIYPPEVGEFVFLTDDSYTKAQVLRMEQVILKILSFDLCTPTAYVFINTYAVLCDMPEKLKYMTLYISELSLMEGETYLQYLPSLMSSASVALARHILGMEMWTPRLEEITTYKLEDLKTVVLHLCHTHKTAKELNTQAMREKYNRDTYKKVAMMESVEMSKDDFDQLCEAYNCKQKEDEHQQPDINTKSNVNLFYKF

[1] = target: T2, GST-tagged Mtrm (Matrimony) (Drosophila melanogaster, UniProt Q23973 1-217); test: as above; details: one partner purified
T2 construct: mtrm cDNA LD47919 cloned into pGEX6p-1; also called GST-Mtrm; source: expressed and purified from bacteria
T2 sequence (looked up): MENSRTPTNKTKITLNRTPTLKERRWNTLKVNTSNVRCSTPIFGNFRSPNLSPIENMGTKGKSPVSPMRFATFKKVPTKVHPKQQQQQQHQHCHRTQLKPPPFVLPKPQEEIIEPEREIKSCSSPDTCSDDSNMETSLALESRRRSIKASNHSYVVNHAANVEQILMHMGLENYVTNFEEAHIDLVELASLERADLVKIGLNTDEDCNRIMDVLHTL

fold binding to GST-CycA against binding to GST-Mtrm (GST-CycA (Cyclin A)): 155 fold
B1: 6×Myc-Fzy/Cdc20, in vitro translated (natural protein, Drosophila melanogaster, UniProt Q24044 1-526, looked up)
chain: MSQFNFVSDLQNALIMDGETRGPAPRWKKKLEASLNGSVNTTRSVLSVSYNTSFSGVQAPTKTPGKSSEGKTKKSNTTPSKTPGGGDRFIPNRAATNFELAHFLVNKDSGDKSDEENDKATSSNSNESNVQASAHKGDRQKLISEVAQVGDSKGGRILCYQNKAPAAPETHNNPLKVVYSIKTPISTKSGSRYIPTTSERILDAPDFINDYYLNLMDWSADNIVAVALGSCVYLWNAQTGNIEQLTEFEEGDYAGSLSWIQEGQILAIGNSTGAVELWDCSKVKRLRVMDGHSARVGSLAWNSFLVSSGSRDGTIVHHDVRAREHKLSTLSGHTQEVCGLKWSTDFKYLASGGNDNLVNVWSAASGGVGTATDPLHKFNDHQAAVRALAWCPWQPSTLASGGGTADRCIKFWNVNNGTLMKSVDSKSQVCSLLFSRHYKELISAHGFANNQLTIWKYPTMVKQADLTGHTSRVLQMAMSPDGSTVISAGADETLRLWNCFAPDPLASKKAVSTSKGKQSVFRQSIR
notes: 6×myc-fzy/cdc20 cDNA cloned into pOT2; also called Myc-tagged Fzy/Cdc20; Fizzy; source: in vitro translated (TnT T7 Coupled Reticulocyte Lysate System, rabbit reticulocyte lysate)

fold binding to GST-Mtrm against 6×Myc-CortΔWD40 [1]: 5.8 fold
B2: 6×Myc-Cortex (full length), in vitro translated (natural protein, Drosophila melanogaster, UniProt Q960N3 1-483, looked up)
chain: MFVEMSVCDSPNKNSKLDKKSLTPFKKVRRKNWKQEAAYKSDTSKGQEVSYVGERFIPNRFERENIEFNLKYIGKRKERDILETGVTLTASYWRQSGFISNINRTFGIGERRLFQFSSQQGTRSRVVDNDSADSDWPCNPRARPYAIQNATHEMPGICSPVDYNMMDWSSGGMVAMSSGQDVMLWRNLDESTMVFSVESPTSLKYSPDGKHLAIGCMDRNYPVLDLWEVRSPTEFLVSYRKLFFKSMGYISCIEWSHDGKEVICGTQCGVIIVLAMPTLNTLMQLREHRHTVKKMKFAPTHKYFASSDTDGKIFIFDAVLKVRLLKLDGRSIVFDWHPWTGEDLAVAERSPASIFIFNIPRRQFVASYRRRDDRIVIKTLTYSKITGELLVNVIRRDDADLAVCEILVLASLNRVVDLMSHQDRGTLFLMWNPDGTKIATGGLDDTFSLWNFFPTYKREAILRKQEQKAKDKCSSLSLYKGIR
notes: 6×myc-cort cDNA cloned into pOT2; also called Myc-tagged Cort; source: in vitro translated (TnT T7 Coupled Reticulocyte Lysate System, rabbit reticulocyte lysate)
